Key:
Test in all cases: cell-based or functional assay
PAK4(h) = PAK4(h) (human, UniProt O96013 1-591, limits assumed)
Met(Y1248D)(h) = Met(Y1248D)(h) (human, UniProt P08581-2 974-1408, limits assumed)
EphA1(h) = target: T1, EphA1(h) (human, UniProt P21709 569-976, limits assumed)
T1 sequence (looked up): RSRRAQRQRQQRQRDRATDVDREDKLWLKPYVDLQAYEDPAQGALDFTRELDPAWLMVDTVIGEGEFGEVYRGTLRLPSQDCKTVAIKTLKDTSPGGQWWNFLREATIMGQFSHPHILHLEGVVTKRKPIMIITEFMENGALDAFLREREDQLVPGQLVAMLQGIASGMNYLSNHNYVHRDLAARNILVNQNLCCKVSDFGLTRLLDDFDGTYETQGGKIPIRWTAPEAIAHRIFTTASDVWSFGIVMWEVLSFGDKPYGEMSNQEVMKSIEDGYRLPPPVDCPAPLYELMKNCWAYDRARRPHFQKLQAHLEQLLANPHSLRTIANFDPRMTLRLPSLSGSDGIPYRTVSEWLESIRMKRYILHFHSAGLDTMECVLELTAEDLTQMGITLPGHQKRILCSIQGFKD

CDK9/cyclin T1(h) = CDK9/cyclin T1(h) (human, UniProt P50750 1-372; O60563 1-726, limits assumed)
Chain of CDK9/cyclin T1(h) (P50750 whole entry, chain 1 of 2): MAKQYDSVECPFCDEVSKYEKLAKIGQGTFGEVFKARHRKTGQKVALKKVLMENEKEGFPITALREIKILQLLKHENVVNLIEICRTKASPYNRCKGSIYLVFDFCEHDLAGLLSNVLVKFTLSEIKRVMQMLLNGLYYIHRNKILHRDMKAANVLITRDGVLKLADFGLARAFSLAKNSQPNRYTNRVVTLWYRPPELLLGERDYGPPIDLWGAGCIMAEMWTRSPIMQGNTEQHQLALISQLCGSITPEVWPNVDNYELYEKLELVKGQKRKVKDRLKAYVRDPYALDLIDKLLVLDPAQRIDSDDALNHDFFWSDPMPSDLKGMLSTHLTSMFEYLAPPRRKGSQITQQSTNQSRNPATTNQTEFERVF
Chain of CDK9/cyclin T1(h) (O60563 whole entry, chain 2 of 2): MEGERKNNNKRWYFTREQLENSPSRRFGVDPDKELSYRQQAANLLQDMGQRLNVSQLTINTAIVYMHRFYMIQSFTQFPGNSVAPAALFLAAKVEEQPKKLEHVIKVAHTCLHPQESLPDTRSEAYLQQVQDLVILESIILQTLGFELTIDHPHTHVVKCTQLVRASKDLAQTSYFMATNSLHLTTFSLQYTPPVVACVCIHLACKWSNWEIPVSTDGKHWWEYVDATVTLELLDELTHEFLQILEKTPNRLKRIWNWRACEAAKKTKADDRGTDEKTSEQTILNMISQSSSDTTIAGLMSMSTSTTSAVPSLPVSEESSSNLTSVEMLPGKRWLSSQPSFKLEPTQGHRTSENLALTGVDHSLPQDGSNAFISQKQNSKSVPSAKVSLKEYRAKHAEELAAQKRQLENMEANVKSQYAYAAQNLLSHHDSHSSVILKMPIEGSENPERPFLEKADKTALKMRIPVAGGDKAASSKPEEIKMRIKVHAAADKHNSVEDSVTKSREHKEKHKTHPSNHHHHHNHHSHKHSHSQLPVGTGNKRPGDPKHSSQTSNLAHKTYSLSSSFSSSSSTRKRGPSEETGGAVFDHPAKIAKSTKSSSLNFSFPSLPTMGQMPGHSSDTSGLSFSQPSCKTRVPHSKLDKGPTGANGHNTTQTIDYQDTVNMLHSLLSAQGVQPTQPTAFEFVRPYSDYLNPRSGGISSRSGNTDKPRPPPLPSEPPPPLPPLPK

PKGδ(h) = PKGδ(h) (human)
eEF-2K(h) = target: T2, eEF-2K(h) (human, UniProt O00418 1-725, limits assumed)
T2 sequence (looked up): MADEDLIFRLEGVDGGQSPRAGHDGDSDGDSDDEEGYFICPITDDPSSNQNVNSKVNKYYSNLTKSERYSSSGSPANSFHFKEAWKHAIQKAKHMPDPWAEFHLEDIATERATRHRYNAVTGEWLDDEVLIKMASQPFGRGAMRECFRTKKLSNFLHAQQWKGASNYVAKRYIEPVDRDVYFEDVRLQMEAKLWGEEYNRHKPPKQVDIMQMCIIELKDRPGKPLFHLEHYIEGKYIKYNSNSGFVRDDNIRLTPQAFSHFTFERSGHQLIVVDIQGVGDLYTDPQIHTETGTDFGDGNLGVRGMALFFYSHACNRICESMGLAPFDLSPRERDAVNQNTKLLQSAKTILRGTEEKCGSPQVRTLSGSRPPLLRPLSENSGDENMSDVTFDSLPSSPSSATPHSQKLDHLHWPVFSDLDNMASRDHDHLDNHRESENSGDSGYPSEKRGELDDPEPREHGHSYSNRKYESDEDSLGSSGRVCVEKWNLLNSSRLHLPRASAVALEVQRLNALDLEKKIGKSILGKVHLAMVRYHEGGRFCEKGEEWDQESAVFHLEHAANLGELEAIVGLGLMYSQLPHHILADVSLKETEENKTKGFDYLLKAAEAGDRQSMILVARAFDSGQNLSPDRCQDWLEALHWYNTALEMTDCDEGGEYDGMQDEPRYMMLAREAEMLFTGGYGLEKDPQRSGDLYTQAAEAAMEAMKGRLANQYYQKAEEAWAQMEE

cSRC(h) = cSRC(h) (human, UniProt P12931 1-536)
EphB4(h) = target: T3, EphB4(h) (human, UniProt P54760 561-987, limits assumed)
T3 sequence (looked up): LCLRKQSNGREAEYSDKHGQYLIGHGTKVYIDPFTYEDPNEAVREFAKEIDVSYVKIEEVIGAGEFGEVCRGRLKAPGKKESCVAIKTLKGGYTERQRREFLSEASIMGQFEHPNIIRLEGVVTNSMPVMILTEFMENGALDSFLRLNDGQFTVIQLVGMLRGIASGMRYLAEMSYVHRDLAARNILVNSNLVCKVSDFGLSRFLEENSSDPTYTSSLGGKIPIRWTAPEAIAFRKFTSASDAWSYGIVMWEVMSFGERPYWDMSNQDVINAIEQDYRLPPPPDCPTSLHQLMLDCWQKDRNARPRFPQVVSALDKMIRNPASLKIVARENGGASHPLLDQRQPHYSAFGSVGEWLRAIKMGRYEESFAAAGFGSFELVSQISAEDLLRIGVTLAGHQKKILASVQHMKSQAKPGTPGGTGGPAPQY

EphA5(h) = target: T4, EphA5(h) (human, UniProt P54756 595-1037, limits assumed)
T4 sequence (looked up): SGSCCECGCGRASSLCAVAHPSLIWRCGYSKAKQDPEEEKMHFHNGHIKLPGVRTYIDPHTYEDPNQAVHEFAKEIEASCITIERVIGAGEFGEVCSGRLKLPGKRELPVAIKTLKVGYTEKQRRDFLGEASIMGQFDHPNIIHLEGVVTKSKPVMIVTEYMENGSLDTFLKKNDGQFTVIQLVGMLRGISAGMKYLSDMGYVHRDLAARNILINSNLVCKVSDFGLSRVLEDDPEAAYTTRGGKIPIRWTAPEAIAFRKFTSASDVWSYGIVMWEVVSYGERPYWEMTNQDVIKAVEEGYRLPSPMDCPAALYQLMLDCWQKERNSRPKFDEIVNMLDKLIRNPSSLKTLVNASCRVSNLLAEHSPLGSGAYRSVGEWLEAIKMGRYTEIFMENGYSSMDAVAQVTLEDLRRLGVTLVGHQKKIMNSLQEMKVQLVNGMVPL

PRK2(h) = PRK2(h) (human, UniProt Q16513 501-984, limits assumed)
Chain of PRK2(h) (Q16513 501-984 limits assumed): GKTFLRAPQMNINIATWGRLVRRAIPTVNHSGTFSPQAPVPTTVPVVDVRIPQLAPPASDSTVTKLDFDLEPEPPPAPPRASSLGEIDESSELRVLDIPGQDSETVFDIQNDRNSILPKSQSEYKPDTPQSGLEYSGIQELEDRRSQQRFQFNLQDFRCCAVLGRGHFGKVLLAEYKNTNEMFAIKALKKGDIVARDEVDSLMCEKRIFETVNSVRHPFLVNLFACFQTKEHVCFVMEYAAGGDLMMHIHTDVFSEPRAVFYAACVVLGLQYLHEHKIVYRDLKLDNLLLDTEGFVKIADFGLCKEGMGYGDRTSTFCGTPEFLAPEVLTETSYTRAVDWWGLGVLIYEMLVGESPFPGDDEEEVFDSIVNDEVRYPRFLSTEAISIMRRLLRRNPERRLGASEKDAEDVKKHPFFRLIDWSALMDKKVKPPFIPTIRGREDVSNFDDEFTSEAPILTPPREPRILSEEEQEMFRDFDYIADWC

Src(1-530)(h) = Src(1-530)(h) (human, UniProt P12931 1-530)

Chain of PAK4(h) (O96013 whole entry): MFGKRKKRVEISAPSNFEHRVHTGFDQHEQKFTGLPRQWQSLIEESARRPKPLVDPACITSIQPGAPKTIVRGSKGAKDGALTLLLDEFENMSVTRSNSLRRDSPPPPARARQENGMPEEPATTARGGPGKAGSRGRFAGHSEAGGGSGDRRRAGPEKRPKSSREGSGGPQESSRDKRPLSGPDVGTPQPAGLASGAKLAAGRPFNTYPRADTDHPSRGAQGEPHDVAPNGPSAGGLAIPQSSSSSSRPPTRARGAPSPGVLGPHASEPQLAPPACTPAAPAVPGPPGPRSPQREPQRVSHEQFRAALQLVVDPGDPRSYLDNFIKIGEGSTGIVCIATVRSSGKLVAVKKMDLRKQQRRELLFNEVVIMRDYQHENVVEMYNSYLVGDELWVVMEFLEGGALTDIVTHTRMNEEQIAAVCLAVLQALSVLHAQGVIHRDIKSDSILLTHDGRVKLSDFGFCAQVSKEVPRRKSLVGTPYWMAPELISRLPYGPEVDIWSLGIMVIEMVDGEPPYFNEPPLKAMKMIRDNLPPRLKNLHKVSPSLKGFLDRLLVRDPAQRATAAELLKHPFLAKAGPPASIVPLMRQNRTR

Binder | % activity, 100 µM (PAK4(h)) [%] | % activity, 100 µM (Met(Y1248D)(h)) [%] | % activity, 100 µM (EphA1(h)) [%] | % activity, 100 µM (CDK9/cyclin T1(h)) [%] | % activity, 100 µM (PKGδ(h)) [%] | % activity, 100 µM (eEF-2K(h)) [%] | % activity, 100 µM (cSRC(h)) [%] | % activity, 100 µM (EphB4(h)) [%] | % activity, 100 µM (EphA5(h)) [%] | % activity, 100 µM (PRK2(h)) [%] | % activity, 100 µM (Src(1-530)(h)) [%]
FAKLAARLYRKALARQLGVAA [MMI-0300] | 94 | 102 | 73 | 91 | 101 | 91 | 26 | 44 | 18 | 33 | 23
KAFAKLAARLYRKALARQLGVAA [MMI-0400] | 89 | 31 | 61 | 235 | 90 | 43 | 14 | 28 | 24 | 27 | 19

Source: patent US20140072613A1 (published 2014)
